This note sets out measurements from patent US7422862B2, “Methods for identifying modulators of apoptosis” (The Burnham Institute, priority 2001, dated 2008).

The target in one test is T1, Bok (Homo sapiens, UniProt Q9UMX3).
T1 construct: expressed in transfected cells; host or cells: HEK293T
T1 sequence (Q9UMX3 1-212): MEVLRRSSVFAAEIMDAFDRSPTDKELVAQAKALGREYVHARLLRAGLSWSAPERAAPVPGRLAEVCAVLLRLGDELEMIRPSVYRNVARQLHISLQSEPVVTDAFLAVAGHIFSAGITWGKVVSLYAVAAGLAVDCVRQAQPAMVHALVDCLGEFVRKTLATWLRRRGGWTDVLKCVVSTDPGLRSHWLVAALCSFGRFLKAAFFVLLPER
Kind of test: Co-immunoprecipitation with Bcl-2 family proteins in HEK293T cells. The format is binding. An excerpt: (§1) (A) HEK293T cells were transfected with pcDNA3-myc plasmids encoding Bax or other Bcl-2 family proteins with GFP, GFP-HN, or GFP-HN(C8P). Cell lysates were immunoprecipitated with polyclonal anti-GFP antibody. The immunoprecipitates or the lysates were blotted with anti-myc or anti-GFP antibodies, respectively. The slower migrating form of GFP seen in lane 1 (asterisk)represents an alternative form of GFP produced from the wild-type (control) p-EGFP-Cl plasmid (http://clonotech.com). (B) Testes of three-week-old mice were homogenized in lysis buffer (0.1% Triton X-100, 50 mM Tris-HCl, pH7.5, 1 mM EDTA, plus protease inhibitor cocktail). The lysates were immunoprecipitated with control rabbit serum or polyclonal anti-mouse Bax antibody. The immunoprecipitates or the lysates were subjected to electrophoresis in Tris/Tricine gels (16% T, 3% C), electroblotted to PVDF membrane, and immunoblotted with polyclonal anti-HN antibody or monoclonal anti-Bax antibody 6A7 (Trevigen). (C) The affinity (Kd) of Bax/HN interaction was measured by fluorescence polarization assay, using various concentrations of purified recombinant Bax and 40 nM rhodamine-conjugated HN peptide. Control peptide from CD40 is also shown (mean +Std Dev; n=3).
(§2) Furthermore, multiple Bcl-2 family proteins were surveyed for interactions with Humanin by coimmunoprecipitation experiments (FIG. 5A).
(§3) Immunoblotting and immunoprecipitations were performed as follows. Immunoblotting was performed as described previously (Fields and Song, Nature 340:245-246 (1989)). For co-immunoprecipitations, cells were cultured in 50 uM […] Valine Alanine Asparate fluoromethyl-ketone (zVAD-fmk) to prevent apoptosis. Cells were suspended in lysis buffer (50 mM Tris-HCl, pH7.4; 150 mM NaCl; 20 mM EDTA; 50 mM NaF; 0.5% NP-40; 0.1 mM Na3VO4; 20 ug/ml Leupeptin; 20 ug/ml Aprotinin; 1 mM DTT; and 1 mM PMSF). Lysates (200 ul diluted in 1 ml final volume of lysis buffer) were cleared by incubation with 15 ul of protein G-Sepharose 4B (Zymed) and then incubated with 15 ul of polyclonal antibody and 15 ul of protein G at 4° C. overnight. Beads were then washed 4 times with 1.5 mls lysis buffer before boiling in Laemmli sample buffer and performing SDS-PAGE/immunoblotting.

In the next test the target is Mcl-1 (Homo sapiens, UniProt Q07820). The description is as above. In kind it is binding.
Source text: as §1, §2, §3

A further test deals with T2, RFP-Bax (Homo sapiens, UniProt Q07812).
T2 construct: expressed in transfected cells; host or cells: Cos-7
The experiment in a line: Cellular co-localization in Cos-7 cells (confocal microscope). The format is cell-based. An excerpt:
GFP-HN and a Red Fluorecence Protein (RFP) vector, RFP-Bax, were transfected into Cos-7 cells. The intracellular localization of the expressed polypeptides was examined using a confocal microscope. […] GFP-HN localized to punctate intracellular membranes and when GFP-HN and RFP-Bax were co-expressed, the two polypeptides co-localized to intracellular membranes (data not shown).

T2 sequence (Q07812 whole entry): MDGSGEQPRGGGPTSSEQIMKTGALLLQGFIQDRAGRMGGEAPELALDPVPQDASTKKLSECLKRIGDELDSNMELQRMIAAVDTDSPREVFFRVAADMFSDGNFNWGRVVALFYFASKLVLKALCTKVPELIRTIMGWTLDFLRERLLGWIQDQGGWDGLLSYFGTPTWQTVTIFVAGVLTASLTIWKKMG
Mcl-1, sequence (Q07820 whole entry, species assumed): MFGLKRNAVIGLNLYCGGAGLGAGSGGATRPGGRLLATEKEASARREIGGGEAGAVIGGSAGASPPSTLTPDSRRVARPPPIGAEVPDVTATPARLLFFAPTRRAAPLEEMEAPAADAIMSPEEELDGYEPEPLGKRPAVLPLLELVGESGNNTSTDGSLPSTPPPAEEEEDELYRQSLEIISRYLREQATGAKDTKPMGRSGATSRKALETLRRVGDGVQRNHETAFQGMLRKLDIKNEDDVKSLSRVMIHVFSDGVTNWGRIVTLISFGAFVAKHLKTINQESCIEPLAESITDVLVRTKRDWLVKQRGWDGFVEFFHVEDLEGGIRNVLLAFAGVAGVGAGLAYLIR

On to “GFP-HN: Wild-type full-length Humanin fused to Green Fluorescent Protein”, for which the “co-immunoprecipitation with Bok” value in the test with Bok is reported as “did not co-immunoprecipitate”. Further, the “co-immunoprecipitation with Mcl-1” value with Mcl-1 was “did not co-immunoprecipitate”. Moreover, the “co-localization with RFP-Bax” value with RFP-Bax was “co-localized”.
